Data from paper PMC10397247.
One block for each binder: values may come before it.

Assays:
4H458-AA = target: T1, 4H458-AA; assay: two-hybrid library CCmax; conditions: mean of both orientations;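 note: natural log of median RNA to DNA barcode read ratio; higher means stronger binding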
T1 chain: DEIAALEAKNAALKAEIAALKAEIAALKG

4H3165-AA = target: T2, 4H3165-AA; assay: two-hybrid library CCmax; conditions: mean of both orientations;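 note: natural log of median RNA to DNA barcode read ratio; higher means stronger binding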
T2 chain: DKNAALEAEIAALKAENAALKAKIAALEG

4H2438-AA = target: T3, 4H2438-AA; assay: two-hybrid library CCmax; conditions: mean of both orientations;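 note: natural log of median RNA to DNA barcode read ratio; higher means stronger binding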
T3 chain: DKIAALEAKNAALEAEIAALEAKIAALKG

4H94-AA = target: T4, 4H94-AA; assay: two-hybrid library CCmax; conditions: mean of both orientations;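 note: natural log of median RNA to DNA barcode read ratio; higher means stronger binding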
T4 chain: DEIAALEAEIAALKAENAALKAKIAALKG

4H3130-AA = target: T5, 4H3130-AA; assay: two-hybrid library CCmax; conditions: mean of both orientations;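 note: natural log of median RNA to DNA barcode read ratio; higher means stronger binding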
T5 chain: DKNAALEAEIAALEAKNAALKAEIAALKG

4H2865-AA = target: T6, 4H2865-AA; assay: two-hybrid library CCmax; conditions: mean of both orientations;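 note: natural log of median RNA to DNA barcode read ratio; higher means stronger binding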
T6 chain: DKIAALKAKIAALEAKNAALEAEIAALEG

4H570-AA = target: T7, 4H570-AA; assay: two-hybrid library CCmax; conditions: mean of both orientations
T7 chain: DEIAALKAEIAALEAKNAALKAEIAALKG

4H930-AA = target: T8, 4H930-AA; assay: two-hybrid library CCmax; conditions: mean of both orientations
T8 chain: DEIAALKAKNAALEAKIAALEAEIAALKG

4H3381-AA = target: T9, 4H3381-AA; assay: two-hybrid library CCmax
T9 chain: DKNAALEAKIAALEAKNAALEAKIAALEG

4H3590-AA = target: T10, 4H3590-AA; assay: two-hybrid library CCmax; conditions: mean of both orientations
T10 chain: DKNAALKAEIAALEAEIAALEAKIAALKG

4H3697-AA = target: T11, 4H3697-AA; assay: two-hybrid library CCmax; conditions: mean of both orientations
T11 chain: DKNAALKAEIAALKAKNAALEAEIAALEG

4H629-AA = target: T12, 4H629-AA; assay: two-hybrid library CCmax; conditions: mean of both orientations
T12 chain: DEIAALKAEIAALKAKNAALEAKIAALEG

4H2473-AA = target: T13, 4H2473-AA; assay: two-hybrid library CCmax; conditions: mean of both orientations
T13 chain: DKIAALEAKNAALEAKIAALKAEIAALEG

4H2253-AA = target: T14, 4H2253-AA; assay: two-hybrid library CCmax; conditions: mean of both orientations
T14 chain: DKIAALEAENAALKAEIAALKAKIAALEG

4H2698-AA = target: T15, 4H2698-AA; assay: two-hybrid library CCmax; conditions: mean of both orientations
T15 chain: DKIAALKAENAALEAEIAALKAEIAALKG

4H3865-AA = target: T16, 4H3865-AA; assay: two-hybrid library CCmax; conditions: mean of both orientations
T16 chain: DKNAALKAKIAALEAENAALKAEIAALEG

4H2109-AA = target: T17, 4H2109-AA; assay: two-hybrid library CCmax; conditions: mean of both orientations
T17 chain: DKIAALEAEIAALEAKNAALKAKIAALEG

4H3753-AA = target: T18, 4H3753-AA; assay: two-hybrid library CCmax; conditions: mean of both orientations
T18 chain: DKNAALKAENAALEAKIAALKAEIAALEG

4H710-AA = target: T19, 4H710-AA; assay: two-hybrid library CCmax; conditions: mean of both orientations
T19 chain: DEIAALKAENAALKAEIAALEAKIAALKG

4H850-AA = target: T20, 4H850-AA; assay: two-hybrid library CCmax; conditions: mean of both orientations
T20 chain: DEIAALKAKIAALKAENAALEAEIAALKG

4H2274-AA = target: T21, 4H2274-AA; assay: two-hybrid library CCmax; conditions: mean of both orientations
T21 chain: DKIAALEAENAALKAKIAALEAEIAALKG

4H3120-AA = target: T22, 4H3120-AA; assay: two-hybrid library CCmax; conditions: mean of both orientations
T22 chain: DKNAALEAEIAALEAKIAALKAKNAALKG

4H909-AA = target: T23, 4H909-AA; assay: two-hybrid library CCmax; conditions: mean of both orientations
T23 chain: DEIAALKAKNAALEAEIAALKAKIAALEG

4H3395-AA = target: T24, 4H3395-AA; assay: two-hybrid library CCmax; conditions: mean of both orientations
T24 chain: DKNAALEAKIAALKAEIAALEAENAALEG

4H310-AA = target: T25, 4H310-AA; assay: two-hybrid library CCmax; conditions: mean of both orientations
T25 chain: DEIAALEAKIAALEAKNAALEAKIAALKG

4H2330-AA = target: T26, 4H2330-AA; assay: two-hybrid library CCmax; conditions: mean of both orientations
T26 chain: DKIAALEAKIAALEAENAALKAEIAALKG

4H1877-AA = target: T27, 4H1877-AA; assay: two-hybrid library CCmax
T27 chain: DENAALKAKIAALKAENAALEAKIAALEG

4H3410-AA = target: T28, 4H3410-AA; assay: two-hybrid library CCmax; conditions: mean of both orientations
T28 chain: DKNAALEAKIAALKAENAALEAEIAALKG

4H797-AA = target: T29, 4H797-AA; assay: two-hybrid library CCmax; conditions: mean of both orientations
T29 chain: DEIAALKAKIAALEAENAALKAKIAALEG

4H536-AA = target: T30, 4H536-AA; assay: two-hybrid library CCmax; conditions: mean of both orientations
T30 chain: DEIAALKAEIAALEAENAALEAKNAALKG

4H745-AA = target: T31, 4H745-AA; assay: two-hybrid library CCmax; conditions: mean of both orientations
T31 chain: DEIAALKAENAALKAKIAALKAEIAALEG

4H2389-AA = target: T32, 4H2389-AA; assay: two-hybrid library CCmax; conditions: mean of both orientations
T32 chain: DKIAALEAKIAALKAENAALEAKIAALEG

4H485-AA = target: T33, 4H485-AA; assay: two-hybrid library CCmax; conditions: mean of both orientations
T33 chain: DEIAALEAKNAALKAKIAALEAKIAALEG

4H891-AA = target: T34, 4H891-AA; assay: two-hybrid library CCmax; conditions: mean of both orientations
T34 chain: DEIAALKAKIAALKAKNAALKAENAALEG

4H3009-AA = target: T35, 4H3009-AA; assay: two-hybrid library CCmax; conditions: mean of both orientations
T35 chain: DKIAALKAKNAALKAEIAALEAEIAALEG

4H2649-AA = target: T36, 4H2649-AA; assay: two-hybrid library CCmax; conditions: mean of both orientations
T36 chain: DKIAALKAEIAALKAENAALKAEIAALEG

4H2162-AA = target: T37, 4H2162-AA; assay: two-hybrid library CCmax; conditions: mean of both orientations
T37 chain: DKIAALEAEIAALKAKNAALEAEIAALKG

4H2725-AA = target: T38, 4H2725-AA; assay: two-hybrid library CCmax; conditions: mean of both orientations
T38 chain: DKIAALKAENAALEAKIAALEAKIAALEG

4H3016-AA = target: T39, 4H3016-AA; assay: two-hybrid library CCmax; conditions: mean of both orientations
T39 chain: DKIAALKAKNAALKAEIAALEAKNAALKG

4H370-bA = target: T40, 4H370-bA; assay: two-hybrid library CCNG1
T40 chain: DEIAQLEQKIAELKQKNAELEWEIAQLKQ

4H883-bA = target: T41, 4H883-bA; assay: two-hybrid library CCNG1
T41 chain: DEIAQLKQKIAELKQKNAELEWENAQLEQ

4H953-bA = target: T42, 4H953-bA; assay: two-hybrid library CCNG1
T42 chain: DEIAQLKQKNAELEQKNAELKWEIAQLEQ

4H918-bA = target: T43, 4H918-bA; assay: two-hybrid library CCNG1
T43 chain: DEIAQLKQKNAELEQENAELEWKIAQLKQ

4H3189-bA = target: T44, 4H3189-bA; assay: two-hybrid library CCNG1
T44 chain: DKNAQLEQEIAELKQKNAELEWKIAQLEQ

4H462-bA = target: T45, 4H462-bA; assay: two-hybrid library CCNG1
T45 chain: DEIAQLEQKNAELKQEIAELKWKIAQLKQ

4H607-bA = target: T46, 4H607-bA; assay: two-hybrid library CCNG1
T46 chain: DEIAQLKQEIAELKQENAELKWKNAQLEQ

4H797-bA = target: T47, 4H797-bA; assay: two-hybrid library CCNG1
T47 chain: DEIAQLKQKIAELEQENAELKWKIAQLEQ

4H687-bA = target: T48, 4H687-bA; assay: two-hybrid library CCNG1
T48 chain: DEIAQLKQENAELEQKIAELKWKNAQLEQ

4H568-bA = target: T49, 4H568-bA; assay: two-hybrid library CCNG1
T49 chain: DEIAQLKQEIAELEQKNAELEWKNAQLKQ

4H3606-bA = target: T50, 4H3606-bA; assay: two-hybrid library CCNG1
T50 chain: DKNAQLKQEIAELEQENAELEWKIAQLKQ

4H4001-bA = target: T51, 4H4001-bA; assay: two-hybrid library CCNG1
T51 chain: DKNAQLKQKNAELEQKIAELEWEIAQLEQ

4H967-bA = target: T52, 4H967-bA; assay: two-hybrid library CCNG1
T52 chain: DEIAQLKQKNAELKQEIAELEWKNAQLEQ

4H3782-bA = target: T53, 4H3782-bA; assay: two-hybrid library CCNG1
T53 chain: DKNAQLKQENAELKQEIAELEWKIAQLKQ

4H3843-bA = target: T54, 4H3843-bA; assay: two-hybrid library CCNG1
T54 chain: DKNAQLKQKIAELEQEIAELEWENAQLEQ

4H72-bA = target: T55, 4H72-bA; assay: two-hybrid library CCNG1
T55 chain: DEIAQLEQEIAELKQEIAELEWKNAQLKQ

4H331-bA = target: T56, 4H331-bA; assay: two-hybrid library CCNG1
T56 chain: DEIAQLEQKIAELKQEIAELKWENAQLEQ

interaction score (4H458-AA): -0.933 | interaction score (4H3165-AA): 0.715 | interaction score (4H2438-AA): -1.24 | interaction score (4H94-AA): 1.3 | interaction score (4H3130-AA): 1.82 | interaction score (4H2865-AA): -0.796 | interaction score (4H570-AA): 1.9 | interaction score (4H930-AA): -1.46 | interaction score (4H3381-AA): -0.523 | interaction score (4H3590-AA): -0.565 | interaction score (4H3697-AA): -0.0749 | interaction score (4H629-AA): -0.167 | interaction score (4H2473-AA): -1.47 | interaction score (4H2253-AA): -1.17 | interaction score (4H2698-AA): -1.45 | interaction score (4H3865-AA): 0.523 | interaction score (4H2109-AA): 1.92 | interaction score (4H3753-AA): -1.7 | interaction score (4H710-AA): -0.752 | interaction score (4H850-AA): -1.25 | interaction score (4H2274-AA): -1.35 | interaction score (4H3120-AA): -1.28 | interaction score (4H909-AA): -1.84 | interaction score (4H3395-AA): -1.77 | interaction score (4H310-AA): -0.467 | interaction score (4H2330-AA): -1.51 | interaction score (4H1877-AA): 0.288 | interaction score (4H3410-AA): -1.43 | interaction score (4H797-AA): 0.589 | interaction score (4H536-AA): -0.101 | interaction score (4H745-AA): -1.08 | interaction score (4H2389-AA): -1.07 | interaction score (4H485-AA): 0.957 | interaction score (4H891-AA): -1.36 | interaction score (4H3009-AA): 1.03 | interaction score (4H2649-AA): -0.409 | interaction score (4H2162-AA): -1.25 | interaction score (4H2725-AA): -0.897 | interaction score (4H3016-AA): 0.714
Binder: DENAALKAKIAALKAENAALEAKIAALEG [4H1877-AA]

interaction score (4H370-bA): -0.547 | interaction score (4H883-bA): -1.22 | interaction score (4H953-bA): -1.34 | interaction score (4H918-bA): -1.44 | interaction score (4H3189-bA): 0.465 | interaction score (4H462-bA): -1.62 | interaction score (4H607-bA): -1.11 | interaction score (4H797-bA): -1.42 | interaction score (4H687-bA): -0.444 | interaction score (4H568-bA): -1.19 | interaction score (4H3606-bA): -0.875 | interaction score (4H4001-bA): -0.765 | interaction score (4H967-bA): -1.1 | interaction score (4H3782-bA): -0.906 | interaction score (4H3843-bA): -1.24 | interaction score (4H72-bA): -1.18 | interaction score (4H331-bA): -1.26
Binder: DKNAQLEQEIAELKQKNAELEWKIAQLEQ [4H3189-bA]
